Results as given in the DeepSol protein solubility set.

Test: soluble on expression in E. coli; label from the status in PepcDB or PDB records

Row | Sequence | soluble on expression in E. coli
1 | MGQNIELHESLIRLIPYGEVPLPTVEQVQEHIYSYLNYLSESAIEQDVLFRVLLSTEERETLARAALGLTLEEISDFLRLTVKERLSSNGITIDATVTPMVVEYKTRLLSQMGIELGKPALYSFGGLDLLREWLNRRRKLFTQEARNLQLPQPKGILLEHHHHHH | not soluble
2 | MKIESSCPLPVKPGMTVAQATEACYQSELGADTYVEEFEGWVDIEALEPGDPGRKIVCCVEDGICITVEMKYMELPITDTFYGVDLNCQPGEGWMTSLERVARALEDKGLTVVKRDSYILLPDVFVAIEVGETIGWFDPAYWSREEFLEEAILA | not soluble
3 | MSLSGCNGVPTSYVSDPVYSQAFVVTSGAPLPMLLMASAIQWNEDYAVTAKHTPFLRNVVHEGLGDVVFFKHKASSVPHWRQYVPGEAVTAVGFNSFMMPMQGKGHALSSLVRLEGTPGSVFYSVHDGPITKGMSGGPVFADDGKVVGINVAIIPTDEINAGKRPDLVGKDRISVFMSFSEIDKEWRRYQYLLAHKAKPKAPAAVKGYVAVAAKEGHHHHHH | soluble
4 | MAKIYNAPKPKYSGWEWFKFIAIRTVFPPVLLWDLIKIGANKLLGEWVSGLVLPAQNENFDDLAISDDTVSNYNEDDLICEKHDVITHDGAHLDTFEVRHRSQESIDPKYQKYIINLVGNGMCYEHIIDDIKEDSKALKANVIGFNLRGVGQSTGKAKSSEDLVADGIAQVQRLLDQGVSPQNITLKGHSLGAGVASLVAQHFHQLGQPINLFNSRSFSTITNFLVGHMRLERDEIGRAIGHKDSTVGTILGWLAKPFIKFGVALAKWEINAGSAFKSVPEAYKDYIVVRSRKEIRGERIDDAVIPHYASIHKELASERHKKKAEIDEEIANLDDIIRKADPLAKPGLANARDALVQAREKIKSDRKMETDVQYANGHNSDWNALHNRSGKSAQTFFREFVQRTEADHAVKSIPEIN | not soluble
5 | MGSDKIHHHHHHMISRTIQQLEDALGQQLFYRNTRAITPTESGKLFFEYAKRITEQFDEAQKALQDKTIEPSGLVRINAPVFFGQRHIAPWLAGLSERYPRLLIELIQTDEFIDPLRESTDLIFRIGALTDSSFHARIFGTQKYHLAASPQYVAKYGTLDHPTELNQHKCLVYKGFEGPNRWLVRKPNEEWVHYPITPLLSSNNAESLMTAALHSMGIVLFPDWLIGEALKKGDLIKLLPEYEVAIKSPPQHIAAIYPNVRHPPLNIRAVIDYFAEIYGDTPYWQN | not soluble
6 | LYQHMQQQIQVQAAQNIALQDQLQQALIVPNQRIAQLEQQQLSDAKTFQELSKLATDQSQLQDRLNKLAQRSPTHWMASEAEYLVNMAGRKLWLEKDPRTATDLLKSADETIAAMNNPALLPIRKALAKDIAATTNLKSADIEGSVLALDALIGQLDKLPLNRADGEASTAEDTTISGDLNDWQSNLSKTWKALTQDFITIRHRTADVPALLAPDQQWYLVENIRHKLLQSQLALYRYDRAAYHQSLMMARQWIQSYFDVQAHQTSEAIAAIDKLATLELDPITLKAFEAKPLLLQLTSYGELTSLEEPQL | not soluble
7 | MGSDKIHHHHHHMNDSATQLTSTGSLTLRHLEAVTMDKAPTFTVKRIAFDEHYLPAENTRITTNFANLARGANRQQNLRNTLTMINNRFNALAHWDNPEHDRYRVELDIISVEMNLESAQYGNALPLIEILKTYIVDRKNNTRLEGMVGNNFSSYVRDYDFSVLLLEHNKHRSTFSTPDHFGELHGNLFKCFVNSQTYQEHFSKPPVICLSVSSSRTYLRTENQHPVLGVEYQQDEYSLTDEYFKKMGLTVRYFMPPNSVAPLAFYFAGDLLADYTDLELISTISTMDTFQKIYRPEIYNANSPAGKAYQPSLKNQDYSLTRIVYDREERSRLAIEQGKFAEEQFVKPYQATLAQWSAQYAR | not soluble
8 | MPANKLVALTFDDGPDNVLTARVLDKLDKYNVKATFMVVGQRVNDSTAAIIRRMVNSGHEIGNHSWSYSGMANMSPDQIRKSIADTNAVIQKYAGTTPKFFRPPNLETSPTLFNNVDLVFVGGLTANDWIPSTTAEQRAAAVINGVRDGTIILLHDVQPEPHPTPEALDIIIPTLKSRGYEFVTLTELFTLKGVPIDPSVKRMYNSVPLEHHHHHH | soluble
9 | MAHHHHHHMLSDNDLTFHIPSAGLRRMDAWTAPNPSVFSHLHLVGNPDWMSSFSASPQVAAARPALAPPAPVAIEPSAPRPLAAPAAIDAPAPATKKSFLSMFYRGSSNTVSSSVMPPKTSSASFAPMSAPPKALDAFDTPMQRALPVDAQLSVEHLSKLDAVDATISAAPRREPPHPMALGSDTWNALSSVPVPAKTAAGSARLLAPPASIDAVFSRDSKPLWSDLSFASRFRSTAPTLEAFRNAPPAPILSTPPRSPQHQATSSTATVATAFIPVPPKPVTASPLRDTAVSSVEAAAPATMPAARREPRAMAHPLVPVGEDAPAVVTPLLKPVQEIPMVSSKSANLAPSTVNATPPVWGPEPLSLASREPEPSALALPTEFAKSISRPTMQEAQRDEARAAANVRNFISTLFSGSGSDEMDSSTAGNRKADGFNALEFVTNRRGAQAKASQPVDYSTFFNTSLFEDDHDEDSEEGLEKLRRVVLMVMQSAKNSEGTCVSQPTSQSCRRGGGVDATGVAALTTFPSKYTEFSASYQTANNNNADDNEWMQFAR | not soluble
10 | MDAVDATMEKLRAQCLSRGASGIQGLARFFRQLDRDGSRSLDADEFRQGLAKLGLVLDQAEAEGVCRKWDRNGSGTLDLEEFLRALRPPMSQAREAVIAAAFAKLDRSGDGVVTVDDLRGVYSGRAHPKVRSGEWTEDEVLRRFLDNFDSSEKDGQVTLAEFQDYYSGVSASMNTDEEFVAMMTSAWQL | not soluble
11 | MGSDKIHHHHHHMKVVKFGGSSLASGAQLDKVFHIVTSDPARKAVVVSAPGKHYAEDTKVTDLLIACAEQYLATGSAPELAEAVVERYALIANELQLGQSIIEKIRDDLFTLLEGDKSNPEQYLDAVKASGEDNNAKLIAAYFRYKGVKAEYVNPKDAGLFVTNEPGNAQVLPESYQNLYRLRERDGLIIFPGFFGFSKDGDVITFSRSGSDITGSILANGLQADLYENFTDVDAVYSVNPSFVENPKEISELTYREMRELSYAGFSVFHDEALIPAFRAGIPVQIKNTNNPSAEGTRVVSKRDNTNGPVVGIASDTGFCSIYISKYLMNREIGFGRRALQILEEHGLTYEHVPSGIDDMTIILRQGQMDAATERSVIKRIEEDLHADEVIVEHHLALIMVVGEAMRHNVGTTARAAKALSEAQVNIEMINQGSSEVSMMFGVKEAEERKAVQALYQEFFAGVLIS | not soluble
12 | MGRKVKPLASMKKHLTNDERDQRKDAEKALFDYPSLDLTPPDWLHDRALTEWQRVAPYLKANTPISELDRAMLASYCRAYATVQTCENDIRKNGLVQTNQKSGVRKPNPYVALQSQAMKDVKALANDLGMSLSSRARMELNKQKDETPEDTFEAMLS | not soluble
13 | MSLKSFFIGNIEIKVPVIQGGMGVGISLSGLASAVANEGGVGVISCAGLGLLYPKEKGTYTEKCISGLKEEIRKSRMKTKGIIGVNVMVALSNYADMVRTAINEKIDVIFSGAGLPLDLPSYLTTGSITKLVPIVSSSRAAKIICDKWQKNYNYLPDAIVVEGPKAGGHLGFKKEQLQDQNYALDVLIPEVVAIAASYKEQKHIPVIAAGGISTGEDIAHFMELGASGVQMGSIFVTTLECDASETFKEVYIHSKSEDVLIIESPVGMPGRAIDGEFIHSVNNGLEKPRKCSFHCIKTCDYTKSPYCIIKALYNAAKGNMKKGYAFAGSNAFLADKISSVKEVMNTLEREFFLATHKLVEGHHHHHH | not soluble
14 | MALAPAAGCLFDDDNSFTYDVTWYCGMDECTRTEEVQRYDRARQDYSTLTITSSVDDTLFTDGIIAVSNEVPREDCRLVHGLNFLGQDIEPARFCYTPDGFELRVTIPGDGDENSTTWLLRTN | not soluble
15 | MGSDKIHHHHHHMKKKLKIGISACVMGEPVRFDRGHKKSGFCMEQLAEFAEFKPVCPEMAIGLPVPRPTIRQIVRDNIITVSRPDGSGDVTQALKEFGAKAALNYQELAGFVFCAKSPSCGMERVKVYHHHGKGSESTGVGIFAEQVMKANPLLPCEENGRLNDPIIRENFTTRIFTYQKWLDLKAEGLTRHKLIQFHSAHKYLVMSHHVESYRELGRLLGRADIGLEEQSERYISGLMQALKHKASRRSHTNTLQHLQGYFKRQLDEHKRRELTQEIAAYREGLSPLLVPLTLIKHYLIEFPNEYLLQQAYLNPHPKELRLRYGY | not soluble
16 | MGVTLAKGGNVSLSKAAPNLTQVMIGLGWDARSTTGAPFDLDASALLCREGRVLGDEWFVFYNQLKSPDGSVEHTGDNLTGEGEGDDESILVDLSTVPAQVDKIVFPVSIHEADNRGQTFGQVSNAFIRVVNQADGQELARYDLSEDASTETAMIFGEVYRYGGEWKFRAVGQGYASGLRGIVQDFGVSVS | not soluble
17 | MSLSQDGLLGEVLSEGVLTLTLGRAPAHPLSRAMIAALHDALRRAMGDDHVHVLVIHGPGRIFCAGHDLKEIGRHRADPDEGRAFVTDLFEACSALMLDLAHCPKPTIALVEGIATAAGLQLMAACDLAYASPAARFCLPGVQNGGFCTTPAVAVSRVIGRRAVTEMALTGATYDADWALAAGLINRILPEAALATHVADLAGALAARNQAPLRRGLETLNRHLELPLEQAYALATPVMVEHFMDPGRRHLDWIDEGHHHHHH | soluble
18 | MPSENSRPMPSFPRRRESRPWDNGNIQRLSESPRFWIPTFVGMTGCRFVGMTWCRFPYGWIRHSRAGGNLERKI | not soluble
19 | MAHHHHHHMEHVRHLLDVIMGRATLDPGVARVVSVFFNQKSSGFSPQELMQFLVTCAFHVKGMTPLEAARFCFFALRRDMEHAIARDDVIFMLEHSLIEHTIEMPEMELRRRVVDIFGDTTYVIFDDFVRYFIHNYAMWYAFGVPVTVSGERSGRGGDVAPQLNPTLTLLKADGEPNAKARAPTAATTVSTSGAAPVSASTSTTAATPAAAITTATTQKTVPHDESVWRTFIARVQHSNKAFSVTAHVNDTIFDVMVMVQNSTGIRAACQEWRAGNVALDPKCRLGSTELGLGGNEVAAPEVIIIARDEAVRLVMVYKEKGFRWEVRLPSSEKVLKLRALVQHKTMIPLTRCVLRAHGSCLMDRHPLAHYNLQDGDVVTITQE | not soluble
20 | MAHHHHHHSLNVLSVSSEIYPLIKTGGLADVVGALPIALEAHGVRTRTLIPGYPAVKAAVTDPVKCFEFTDLLGEKADLLEVQHERLDLLILDAPAYYERSGGPYLGQTGKDYPDNWKRFAALSLAAARIGAGVLPGWRPDMVHAHDWQAAMTPVYMRYAETPEIPSLLTIHNIAFQGQFGANIFSKLALPAHAFGMEGIEYYNDVSFLKGGLQTATALSTVSPSYAEEILTAEFGMGLEGVIGSRAHVLHGIVNGIDADVWNPATDHLIHDNYSAANLKNRALNKKAVAEHFRIDDDGSPLFCVISRLTWQKGIDLMAEAVDEIVSLGGRLVVLGAGDVALEGALLAAASRHHGRVGVAIGYNEPLSHLMQAGCDAIIIPSRFEPCGLTQLYALRYGCIPVVARTGGLADTVIDANHAALASKAATGVQFSPVTLDGLKQAIRRTVRYYHDPKLWTQMQKLGMKSDVSWEKSAGLYAALYSQLISKGHEG | not soluble
21 | MKSLGADLDKALGRLSGGLYIITAKKGDVSSAMLASWVNQASFKPLGFSIAVAKDRAIESLMQVGDRFVLNVLEEGNYQPLMRHFLKRFAPGADRFEGVKTQPAENGAPILGDALAYMECEVVSRMDCGDHWAVYSTVYAGRVSKSEALTAVHHRKVGNHYLEHHHHHH | not soluble
22 | MQAEILLTLKLQQKLFADPRRISLLKHIALSGSISQGAKDAGISYKSAWDAINDMNQLSEHMLVERATGGKGGGGAVLTRYGQRLIQLYDLLGQIQQKAFDVLSDDDALPLDSLLAAISRFSLQTSARNQWFGTITARDRDLVQQHVDVLLADGKTRLKVALTAQSGERLGLEEGKEVLILLKAPWVGITRDAAVARAADNQLSGTISHIERGAEQCEVLMALPDGQTLCATIPTSDAATLKEGDDVIAWFNADRVIIATLC | not soluble
